Publication doi:10.1101/2025.05.14.654016

Molecular target: LSSmGFP-PRL-3.C104D (human) (UniProt O75365)
Test: FRET or BRET; in vitro FRET, competition: LSSmGFP-PRL3.C104D (250 nM) preincubated with competitor or test compound 30 min at room temperature, then HA-CBS-mScarlet3 (500 nM); 100 mM NaCl, 20 mM HEPES pH 7.5, 5% glycerol; normalised to DMSO control

LSSmGFP-PRL-3.C104D (human), sequence (O75365 whole entry C104D): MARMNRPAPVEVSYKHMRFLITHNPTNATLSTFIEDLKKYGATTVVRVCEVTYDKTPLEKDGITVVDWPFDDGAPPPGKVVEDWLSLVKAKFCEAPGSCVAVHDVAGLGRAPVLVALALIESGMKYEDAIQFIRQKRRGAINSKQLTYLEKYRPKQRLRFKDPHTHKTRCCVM

percent reduction of the FRET signal at 50 μM: 40%
Substance: PSM-001 (cyclic peptide, PRL substrate mimic) (from UniProt Q8NE01 416-432)
